Laboratory results as given in article PMC9243104 (Nature Communications, 2022).

B1: Recombinant human WT*WASp (Wiskott-Aldrich syndrome protein) (natural protein, UniProt P42768 1-502, looked up)
chain: MSGGPMGGRPGGRGAPAVQQNIPSTLLQDHENQRLFEMLGRKCLTLATAVVQLYLALPPGAEHWTKEHCGAVCFVKDNPQKSYFIRLYGLQAGRLLWEQELYSQLVYSTPTPFFHTFAGDDCQAGLNFADEDEAQAFRALVQEKIQKRNQRQSGDRRQLPPPPTPANEERRGGLPPLPLHPGGDQGGPPVGPLSLGLATVDIQNPDITSSRYRGLPAPGPSPADKKRSGKKKISKADIGAPSGFKHVSHVGWDPQNGFDVNNLDPDLRSLFSRAGISEAQLTDAETSKLIYDFIEDQGGLEAVRQEMRRQEPLPPPPPPSRGGNQLPRPPIVGGNKGRSGPLPPVPLGIAPPPPTPRGPPPPGRGGPPPPPPPATGRSGPLPPPPPGAGGPPMPPPPPPPPPPPSSGNGPAPPPLPPALVPAGGLAPGGGRGALLDQIRQGIQLNKTPGAPESSALQPPPQSSEGLVGALMHVMQKRSRAIHSSDEGEDQAGDEDEDDEWDD
notes: human WASp, codon-optimized WAS gene cloned into the NdeI-HindIII site of pET30a; also called wild-type WASp; native purified human WASp; source: E. coli DE3 (pET30a-WT*WASp), purified using Flag-tag; commercially produced by GenScript
B2: ssRNA 61-mer (ssRNA)
RNA: GACGCUGCCGAAUUCUACCAGUGCCUUGCUAGGACAUCUUUGCCCACCUGCAGGUUCACCC
B3: Recombinant human ΔRBM1*WASp (WASp mutant lacking the RPA1-binding motif, aa 493-502) (natural protein, UniProt P42768 1-502, looked up)
chain: MSGGPMGGRPGGRGAPAVQQNIPSTLLQDHENQRLFEMLGRKCLTLATAVVQLYLALPPGAEHWTKEHCGAVCFVKDNPQKSYFIRLYGLQAGRLLWEQELYSQLVYSTPTPFFHTFAGDDCQAGLNFADEDEAQAFRALVQEKIQKRNQRQSGDRRQLPPPPTPANEERRGGLPPLPLHPGGDQGGPPVGPLSLGLATVDIQNPDITSSRYRGLPAPGPSPADKKRSGKKKISKADIGAPSGFKHVSHVGWDPQNGFDVNNLDPDLRSLFSRAGISEAQLTDAETSKLIYDFIEDQGGLEAVRQEMRRQEPLPPPPPPSRGGNQLPRPPIVGGNKGRSGPLPPVPLGIAPPPPTPRGPPPPGRGGPPPPPPPATGRSGPLPPPPPGAGGPPMPPPPPPPPPPPSSGNGPAPPPLPPALVPAGGLAPGGGRGALLDQIRQGIQLNKTPGAPESSALQPPPQSSEGLVGALMHVMQKRSRAIHSSDEGEDQAG
notes: also called RBM1-deleted WASp mutant; source: E. coli DE3 (pET30a-∆RBM1*WASp), purified using Flag-tag; commercially produced by GenScript
B4: XO1 ssDNA 61-mer (ssDNA)
DNA: GACGCTGCCGAATTCTACCAGTGCCTTGCTAGGACATCTTTGCCCACCTGCAGGTTCACCC

Assays:
[1] = biological target: the molecule itself; assay: ELISA; 1 µg of 1st protein coated on a 96-well plate (1 h, 25 °C), blocked with 5% milk in PBS; 2nd protein added at increasing concentrations in blocking buffer (1 h, 25 °C); detected with anti-WASp antibody, OD450; RPA coated alone or after pre-incubation with 1 nM ssDNA
[2] = biological target: WASp (WT*WASp) (Homo sapiens, UniProt P42768 1-502); assay: EMSA; WASp alone; EMSA: 1x Promega E358A gel shift binding buffer (composition not given), 25 ul, 10^5 CPM 32P probe, 10 min 4 C then 20 min room temperature, 6% native PAGE; settings: protein: recombinant; tags: Flag; label: 32P (T4 PNK); single strand
[3] = biological target: RPA heterotrimer (RPA1-3) (Homo sapiens, UniProt P27694;P15927;P35244 1-616;1-270;1-121); assay: EMSA; + WASp; binding increased; EMSA: 1x Promega E358A gel shift binding buffer (composition not given), 25 ul, 10^5 CPM 32P probe, 10 min 4 C then 20 min room temperature, 6% native PAGE; settings: protein: recombinant; copies: 1;1;1; label: 32P (T4 PNK); single strand
[4] = biological target: RPA1-FAB (DBD-F/A/B) (Homo sapiens, UniProt P27694 1-422); assay: as above; settings: protein: recombinant; label: 32P (T4 PNK); single strand
[5] = biological target: RPA1-AB (DBD-A/B) (Homo sapiens, UniProt P27694 181-422); assay: as above; settings: protein: recombinant; label: 32P (T4 PNK); single strand
[6] = biological target: RPA1 (RPA70) (Homo sapiens, UniProt P27694 1-616); assay: EMSA; + WASp; binding increased, maximum at equimolar 25 nM WASp; EMSA: 1x Promega E358A gel shift binding buffer (composition not given), 25 ul, 10^5 CPM 32P probe, 10 min 4 C then 20 min room temperature, 6% native PAGE; settings: protein: commercial; label: 32P (T4 PNK); single strand
Chain of RPA1 (RPA70) (P27694 whole entry): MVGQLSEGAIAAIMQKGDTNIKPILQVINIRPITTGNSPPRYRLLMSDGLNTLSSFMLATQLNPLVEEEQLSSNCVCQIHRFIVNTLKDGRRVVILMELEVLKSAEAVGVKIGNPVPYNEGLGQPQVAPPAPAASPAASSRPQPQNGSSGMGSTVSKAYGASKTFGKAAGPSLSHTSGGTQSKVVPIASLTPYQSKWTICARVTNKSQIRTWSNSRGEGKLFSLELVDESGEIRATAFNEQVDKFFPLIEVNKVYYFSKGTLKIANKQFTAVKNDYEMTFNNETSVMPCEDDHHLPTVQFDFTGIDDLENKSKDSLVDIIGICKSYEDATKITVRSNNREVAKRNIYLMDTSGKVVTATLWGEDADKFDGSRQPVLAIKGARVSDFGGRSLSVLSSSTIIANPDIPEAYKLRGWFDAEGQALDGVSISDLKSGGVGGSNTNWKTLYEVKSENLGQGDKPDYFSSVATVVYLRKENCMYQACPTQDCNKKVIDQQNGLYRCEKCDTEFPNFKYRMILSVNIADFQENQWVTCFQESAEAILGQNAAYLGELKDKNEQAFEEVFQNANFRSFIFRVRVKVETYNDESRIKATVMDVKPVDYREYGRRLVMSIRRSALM

Chain of RPA1-AB (DBD-A/B) (P27694 181-422): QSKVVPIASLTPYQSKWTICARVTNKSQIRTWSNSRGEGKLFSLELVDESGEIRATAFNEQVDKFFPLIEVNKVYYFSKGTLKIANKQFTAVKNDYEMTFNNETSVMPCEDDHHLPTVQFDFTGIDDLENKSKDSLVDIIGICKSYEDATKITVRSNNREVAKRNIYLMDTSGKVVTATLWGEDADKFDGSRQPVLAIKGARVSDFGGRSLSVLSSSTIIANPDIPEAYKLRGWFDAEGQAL
Chain of RPA heterotrimer (RPA1-3) (P27694 whole entry, chain 1 of 3): as the sequence (P27694 whole entry) above
Chain of RPA heterotrimer (RPA1-3) (P15927 whole entry, chain 2 of 3): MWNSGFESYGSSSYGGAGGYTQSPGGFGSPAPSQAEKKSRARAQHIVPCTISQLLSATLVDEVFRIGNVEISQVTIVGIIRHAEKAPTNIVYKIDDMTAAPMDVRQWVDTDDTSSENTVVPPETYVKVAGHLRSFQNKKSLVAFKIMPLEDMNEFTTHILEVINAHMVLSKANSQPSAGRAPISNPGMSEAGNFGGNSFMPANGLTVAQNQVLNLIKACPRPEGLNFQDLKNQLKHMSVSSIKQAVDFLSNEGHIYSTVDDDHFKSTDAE
Chain of RPA heterotrimer (RPA1-3) (P35244 whole entry, chain 3 of 3): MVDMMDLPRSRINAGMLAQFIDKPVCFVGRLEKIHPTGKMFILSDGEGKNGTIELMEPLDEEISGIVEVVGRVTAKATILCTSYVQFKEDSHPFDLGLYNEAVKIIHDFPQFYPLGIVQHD
Chain of RPA1-FAB (DBD-F/A/B) (P27694 1-422): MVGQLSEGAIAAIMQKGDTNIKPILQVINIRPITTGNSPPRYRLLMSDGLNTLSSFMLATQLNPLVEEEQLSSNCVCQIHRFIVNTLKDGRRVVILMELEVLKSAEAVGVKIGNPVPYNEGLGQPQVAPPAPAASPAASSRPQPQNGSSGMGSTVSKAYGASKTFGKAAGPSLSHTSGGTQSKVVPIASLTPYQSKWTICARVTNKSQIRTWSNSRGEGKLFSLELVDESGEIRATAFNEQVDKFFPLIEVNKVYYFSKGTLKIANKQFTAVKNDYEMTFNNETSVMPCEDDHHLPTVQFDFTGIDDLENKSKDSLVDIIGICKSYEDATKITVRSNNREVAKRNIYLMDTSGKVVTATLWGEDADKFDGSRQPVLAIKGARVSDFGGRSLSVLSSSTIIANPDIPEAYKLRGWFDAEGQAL

Binder | binding result [1] | binding result [2] | also measured
B1 | binds |  | 
B2 |  | no binding | 
B3 | binds |  | 
B4 |  | no binding | binding result [3]: binds; binding result [4]: binds; binding result [5]: binds; binding result [6]: binds
